Article PMC9548623

Experiments:
[1] = molecular target: DH475 Fab, heavy chain N30A (human); assay: BLI; BLItz; Fab (0.2 mg/mL) immobilised on Anti-Human Fab-CH1 2nd Generation (FAB2G) biosensors, Env constructs titrated; 2.5 mM Tris pH 7.5, 350 mM NaCl; global fit
[2] = molecular target: DH475 Fab, heavy chain D77A (human); assay: as above
[3] = molecular target: DH475 Fab, heavy chain W104A (human); assay: as above
[4] = molecular target: DH475 Fab, heavy chain N31A (human); assay: as above
[5] = molecular target: CH848 TF DS SOSIP Env trimer (HIV-1 (donor CH848, transmitted/founder)); assay: ITC; 157 uM DH272.2 injected into a cell with 7.59 uM CH848 TF DS SOSIP Env; single site model

DH475 Fab, heavy chain W104A (human), sequence (heavy, as listed by the source, chain 1 of 2): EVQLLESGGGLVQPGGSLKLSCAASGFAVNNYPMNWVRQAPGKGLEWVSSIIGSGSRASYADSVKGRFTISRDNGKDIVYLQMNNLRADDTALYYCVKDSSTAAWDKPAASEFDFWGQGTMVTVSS
DH475 Fab, heavy chain W104A (human), sequence (light, as listed by the source, chain 2 of 2): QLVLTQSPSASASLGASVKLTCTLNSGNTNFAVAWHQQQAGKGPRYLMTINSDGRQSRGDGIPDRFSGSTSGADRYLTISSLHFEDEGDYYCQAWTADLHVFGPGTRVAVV
DH475 Fab, heavy chain N31A (human), sequence (heavy, as listed by the source, chain 1 of 2): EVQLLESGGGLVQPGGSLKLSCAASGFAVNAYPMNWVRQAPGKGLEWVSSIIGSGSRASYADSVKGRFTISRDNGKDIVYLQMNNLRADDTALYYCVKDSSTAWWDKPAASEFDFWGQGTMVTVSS
DH475 Fab, heavy chain N31A (human), sequence (light, as listed by the source, chain 2 of 2): as the sequence (light, as listed by the source, chain 2 of 2) above
DH475 Fab, heavy chain N30A (human), sequence (heavy, as listed by the source, chain 1 of 2): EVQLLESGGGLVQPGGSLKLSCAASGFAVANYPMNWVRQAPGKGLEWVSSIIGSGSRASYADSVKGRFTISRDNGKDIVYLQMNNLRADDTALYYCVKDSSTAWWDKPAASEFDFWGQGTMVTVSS
DH475 Fab, heavy chain N30A (human), sequence (light, as listed by the source, chain 2 of 2): as the sequence (light, as listed by the source, chain 2 of 2) above
DH475 Fab, heavy chain D77A (human), sequence (heavy, as listed by the source, chain 1 of 2): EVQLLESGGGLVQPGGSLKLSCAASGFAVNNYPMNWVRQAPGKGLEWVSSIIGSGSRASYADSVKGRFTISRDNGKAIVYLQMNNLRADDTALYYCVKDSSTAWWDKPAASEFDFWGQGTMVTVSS
DH475 Fab, heavy chain D77A (human), sequence (light, as listed by the source, chain 2 of 2): as the sequence (light, as listed by the source, chain 2 of 2) above

Molecule	Kd [1] [µM]	Kd [2] [µM]	Kd [3] [µM]	Kd [4] [µM]	stoichiometry N [5]
CH848 transmitted/founder (TF) gp120 core (domain or fragment)	> 50	> 50	> 50	> 50	–
DH272.2 Fab (Fab, V domains shown) VH: QVQLVQSGAEVKKPGASVKVSCQASGYRVSDHFVNWMRQAPGQRLEWIGWFNPDSRDTHYADKFKGRVTSTKIGNTVYMQLSSLRSDDTAVYYCARERYDFHSGLEGSFDFWGQGTLVTV VL: DIVMTQSPLSLPVTLGQPASISCRSSQSLVHNYGNTYLNWFQQRPGQSPRRLIYKVSGRDSGVPDRFSGGGSGTDFTLKISSVEAEDVGVYYCMQGTHWPRTFGQGTKLEIN	–	–	–	–	3
